Reference: US20110086767A1, “MUTANTS OF GLYCOSIDE HYDROLASES AND USES THEREOF FOR SYNTHESIZING COMPLEX OLIGOSACCHARIDES AND DISACCHARIDE INTERMEDIATES” (Institut Pasteur, priority 2008, published 2011)
Changes are numbered by the printed parent chain. Numbers in names are those of the source. Like-named read-outs stand apart in the source and are kept apart here.

Legend:
[1] = system: Neisseria polysaccharea amylosucrase 1G5A (parent SEQ ID NO: 13) variants A289P-F290C, A289P-F290I and A289P-F290L; assay: Kinetic parameters towards α-D-GlcpNAc-OAll acceptor, the three double mutants stated together; assay type: biochemical; conditions: sucrose 250 mM
Procedure: (§1) The double mutants A289P-F290C, A289P-F290I and A289P-F290L were produced and purified, as previously described in Example 1-1. The protein content was determined by the Nanodrop ND-1000 spectrophotometer. These mutants were tested on sucrose alone or supplemented with α-D-GlcpNAc-OAll acceptor, and compared to wtAS and F290K. Assays were performed at 30° C. in 50 mM Tris-HCl buffer, pH=7.0.
(§2) Enzyme assays were carried out in a total volume of 2 mL containing pure enzyme (0.037 mg, 0.076 mg and 0.046 mg when using A289P-F290C, A289P-F2901 and A289P-F290L, respectively).
(§3) The kcat/Km (α-D-GlcpNAc-OAll) value was calculated from the initial rate of formation of desired disaccharide (α-D-Glcp-(1→4)-α-D-GlcpNAc-OAll), corresponding to the initial rate of α-D-GlcpNAc-OAll consumed. As saturation was not achieved with the mutants, efficiency was calculated by linear regression analysis of the velocity versus substrate concentration plot.

[2] = system: OC[C@H]1O[C@@](CO)(O[C@H]2O[C@H](CO)[C@@H](O)[C@H](O)[C@H]2O)[C@@H](O)[C@@H]1O; assay: Kinetic parameters towards sucrose donor, double mutant A289P-F290C; assay type: biochemical, Neisseria polysaccharea; conditions: other: sucrose donor (0-500 mM), Eadie-Hofstee plot, 30° C., pH 7.0
Procedure: as §1
(§4) Enzyme assays were carried out in a total volume of 2 mL containing pure enzyme (0.073 mg, 0.153 mg and 0.092 mg when using A289P-F290C, A289P-F2901 and A289P-F290L, respectively).
(§5) Kinetic studies of AS variants were performed in the presence of sucrose (0-500 mM). At regular time intervals (2-5 min), aliquots (200 μL) were removed, heated (95° C., 2 min) and centrifuged (18000 g, 5 min) All the samples were filtered on a 0.22 μm membrane and analyzed using HPLC material previously described. The initial rate of sucrose consumed, corresponding to the initial rate of fructose released, was expressed in mole of fructose released per minute and per gram of enzyme. The kinetic parameters kcat and Km were calculated using Eadie-Hofstee plot.

[3] = system: OC[C@H]1O[C@@](CO)(O[C@H]2O[C@H](CO)[C@@H](O)[C@H](O)[C@H]2O)[C@@H](O)[C@@H]1O; assay: Kinetic parameters towards sucrose donor, double mutant A289P-F290L; assay type: biochemical, Neisseria polysaccharea; conditions: other: sucrose donor (0-500 mM), Eadie-Hofstee plot, 30° C., pH 7.0
Procedure: as §1, §4, §5

[4] = system: OC[C@H]1O[C@@](CO)(O[C@H]2O[C@H](CO)[C@@H](O)[C@H](O)[C@H]2O)[C@@H](O)[C@@H]1O; assay: Kinetic parameters towards sucrose donor, double mutant A289P-F290I; assay type: biochemical, Neisseria polysaccharea; conditions: other: sucrose donor (0-500 mM), Eadie-Hofstee plot, 30° C., pH 7.0
Procedure: as §1, §4, §5

[5] = HPLC screening of the single-mutant amylosucrase library for glucosylation of D-GlcpNAc; assay type: biochemical
Procedure: The protocol was established to enable the rapid identification of clones for which D-GlcpNAc glucosylation was improved. To obtain higher amounts of enzymes and facilitate detection of glucosylated compounds upon HPLC screening, mutants were produced in 96-DeepWell Format plates. Storage microplates containing monomutants were thawed and replicated to inoculate a starter culture in 96-well microplates containing, in each well, 150 μL LB medium supplemented with ampicillin (100 μg/mL). After growth for 24 h at 30° C. under agitation (200 rpm), plates were duplicated into 96-Deep Well plates containing, in each well, 1.1 mL LB medium supplemented with ampicillin (100 μg/mL) and IPTG (1 mM) to induce GST-AS expression. Cultures were then grown for 24 h at 30° C. under agitation (200 rpm). Plates were centrifuged (20 min, 3000 g, 4° C.) and the supernatant was removed. The cell pellet was resuspended in 200 μL of lysozyme (0.5 mg/mL), followed by freezing at −80° C. for 8 to 12 h. After thawing at room temperature, 100 μL of sucrose and 100 μL of acceptor (each at a final concentration of 73 mM) were added to each well. Enzymatic reaction was incubated at 30° C. during 24 h under agitation. The DeepWell plates were then centrifuged (20 min, 3000 g, 4° C.) and 300 μL of the supernatant was transferred to a filter micro-plate (PVDF 0.2 μm) to be clarified. […]
Efficiency of the glucosylation reaction was evaluated by HPLC analysis of the acceptor reaction product synthesized when using D-GlcpNAc as acceptor using a Dionex P 680 series pump, a Shodex RI 101 series refractometer, a Dionex UVD 340 UV/Vis detector and an autosampler HTC PAL. […]
For each of the 7 selected positions, 19 single mutants were generated (corresponding to each possible amino acid change). […] Both sucrose consumption and disaccharide formation were determined in order to calculate the glucosylation rate defined as the molar ratio of monoglucosylated acceptor versus/sucrose consumed.

[6] = data from ref. 83, cited from earlier work
[7] = Kinetic parameters towards α-D-GlcpNAc-OAll acceptor; assay type: biochemical; conditions: 250 mM for both sucrose and α-D-GlcpNAc-OAll
Procedure: as §2, §3

[8] = HPLC screening of double-mutant libraries for variants able to glucosylate D-GlcpNAc; assay type: biochemical; conditions: α-D-Glcp-(1→4)-α-D-GlcpNAc (ED) from sucrose and D-GlcpNAc, microplate format
Procedure: The protocol was established to enable the rapid identification of clones for which D-GlcpNAc glucosylation was improved. To obtain higher amounts of enzymes and facilitate detection of glucosylated compounds upon HPLC screening, mutants were produced in 96-DeepWell Format plates. Storage microplates containing monomutants were thawed and replicated to inoculate a starter culture in 96-well microplates containing, in each well, 150 μL LB medium supplemented with ampicillin (100 μg/mL). After growth for 24 h at 30° C. under agitation (200 rpm), plates were duplicated into 96-Deep Well plates containing, in each well, 1.1 mL LB medium supplemented with ampicillin (100 μg/mL) and IPTG (1 mM) to induce GST-AS expression. Cultures were then grown for 24 h at 30° C. under agitation (200 rpm). Plates were centrifuged (20 min, 3000 g, 4° C.) and the supernatant was removed. The cell pellet was resuspended in 200 μL of lysozyme (0.5 mg/mL), followed by freezing at −80° C. for 8 to 12 h. After thawing at room temperature, 100 μL of sucrose and 100 μL of acceptor (each at a final concentration of 73 mM) were added to each well. Enzymatic reaction was incubated at 30° C. during 24 h under agitation. The DeepWell plates were then centrifuged (20 min, 3000 g, 4° C.) and 300 μL of the supernatant was transferred to a filter micro-plate (PVDF 0.2 μm) to be clarified. Supernatant filtration was carried out by centrifugation of the filter micro-plate (5 min, 2000 g, 4° C.) into a novel microplate for screening.
The method for the expression of the mutant libraries is described in Example 1-1.
Acceptor reaction products were analyzed by HPLC analysis using a C18-AQ column (Bischoff C18, 125×4 mm, 3 μm) kept at room temperature and eluted with 0.6 mL/min of ultra-pure water to detect α-D-Glcp-(1→4)-α-D-GlcpNAc formation (analysis time: 7 min). To evaluate the efficiency of the glucosylation reaction, it was carried out complementary HPLC analyses with a Biorad HPX-87K Carbohydrate Analysis column (maintained at 65° C., and eluted at a flow rate of 0.6 mL/min with ultra-pure water). By this way, it was possible to measure sucrose consumption by RI detection and concomitant α-D-Glcp-(1-4)-α-D-GlcpNAc formation by UV220 nm and determine mutant ability to synthesize the desired disaccharide α-D-Glcp-(1→4)-α-D-GlcpNAc (i.e., % Glucosyl units transferred onto acceptor derivatives=[Glucosyl units transferred onto acceptor derivatives]/[Glucosyl units transferred from initial sucrose]×100)
All clones producing sucrose-utilizing variants were then picked and cultured in 96-well microplates. Following cell lysis, the acceptor reaction in the presence of D-GlcpNAc was then carried out in microplate format. HLPC analysis time for each clone was reduced to 7 min for detection of α-D-Glcp-(1→4)-α-D-GlcpNAc. When disaccharide formation was detected, complementary analyses were performed to determine sucrose consumption and disaccharide formation with more accuracy in order to calculate the glucosylation yield.

[9] = Glucosylation of α-D-GlcpNAc-OAll by purified F290D, F290K and ASNPwt (146 mM sucrose + 146 mM acceptor); assay type: biochemical; conditions: purified enzyme; Sucrose=Acceptor=146 mM; compared with ASNPwt
Procedure: All assays were performed at 30° C. in 50 mM Tris buffer, pH=7.0. For the acceptor reactions, F290D, F290K and ASNPwt (1G5A) were tested on α-D-GlcpNAc-OAll.
Comparison of products synthesized by wild-type and AS variants. Reactions were performed in the presence of 146 mM sucrose alone or supplemented with 146 mM acceptor. The purified wild-type or mutated GST/AS were employed at 0.5 U/mL. The reactions were stopped by heating at 95° C. for 5 min. The final mixture was centrifuged at 18 000 g for 10 min, filtered on 0.22 μm membrane and analyzed by HPLC, as previously described.
Soluble and insoluble oligosaccharides produced during the reaction were identified by HPAEC using a Dionex Carbo-Pack PA100 column at 30° C. Before analysis, the insoluble fraction was solubilized in KOH at a final total sugar concentration of 10 g/kg. Mobile phase (150 mM NaOH) was set at 1 mL/min flow rate with a sodium acetate gradient (going from 6 to 500 mM within 120 min). Detection was performed using a Dionex ED40 module with a gold working electrode and an Ag/AgCl pH reference. Note that α-D-GlcpNAc-OAll (acceptor) and its derivatives are not oxidable products and thus are not detectable by HPAEC. Sucrose, glucose, fructose, α-D-GlcpNAc-OAll (acceptor) and its derivatives (glucosylation products) were quantified by HPLC, as previously described

[10] = Kinetic parameters towards sucrose donor; assay type: biochemical; conditions: for V250mM (initial rate of sucrose consumption): 250 mM sucrose; for behaviour (at high concentration): sucrose donor alone
Procedure: as §4, §5

C=CCO[C@H]1O[C@H](CO)[C@@H](O)[C@H](O)[C@H]1NC(C)=O [α-D-GlcpNAc-OAll, allyl 2-acetamido-2-deoxy-α-D-glucopyranoside]
increase of catalytic efficiency towards α-D-GlcpNAc-OAll compared to variant F290K ([1]; three double mutants vs F290K): 3 fold
increase of catalytic efficiency towards α-D-GlcpNAc-OAll compared to wtAS ([1]; three double mutants vs wtAS): ≤ 395 fold

Neisseria polysaccharea amylosucrase 1G5A (parent SEQ ID NO: 13) variant A289P-F290C (Neisseria polysaccharea; A297P/F298C/G545D)
Km [2]: 18.9 mM

Neisseria polysaccharea amylosucrase 1G5A (parent SEQ ID NO: 13) variant A289P-F290L (Neisseria polysaccharea; A297P/F298L/G545D)
Km [3]: 10.1 mM

Neisseria polysaccharea amylosucrase 1G5A (parent SEQ ID NO: 13) variant A289P-F290I (Neisseria polysaccharea; A297P/F298I/G545D)
Km [4]: 17.2 mM

B1: wtAS: Wild type glycoside hydrolase: amylosucrase 1G5A from Neisseria polysaccharea, SEQ ID NO: 13 (protein, listed as Neisseria polysaccharea)
chain: SPNSQYLKTRILDIYTPEQRAGIEKSEDWRQFSRRMDTHFPKLMNELDSVYGNNEALLPMLEMLLAQAWQSYSQRNSSLKDIDIARENNPDWILSNKQVGGVCYVDLFAGDLKGLKDKIPYFQELGLTYLHLMPLFKCPEGKSDGGYAVSSYRDVNPALGTIGDLREVIAALHEAGISAVVDFIFNHTSNEHEWAQRCAAGDPLFDNFYYIFPDRRMPDQYDRTLREIFPDQHPGGFSQLEDGRWVWTTFNSFQWDLNYSNPWVFRAMAGEMLFLANLGVDILRMDAVAFIWKQMGTSCENLPQAHALIRAFNAVMRIAAPAVFFKSEAIVHPDQVVQYIGQDECQIGYNPLQMALLWNTLATREVNLLHQALTYRHNLPEHTAWVNYVRSHDDIGWTFADEDAAYLGISGYDHRQFLNRFFVNRFDGSFARGVPFQYNPSTGDCRVSGTAAALVGLAQDDPHAVDRIKLLYSIALSTGGLPLIYLGDEVGTLNDDDWSQDSNKSDDSRWAHRPRYNEALYAQRNDPSTAAGQIYQDLRHMIAVRQSNPRFDGGRLVTFNTNNKHIIGYIRNNALLAFGNFSEYPQTVTAHTLQAMPFKAHDLIGGKTVSLNQDLTLQPYQVMWLEIA
glucosylation rate (formation of α-D-Glcp-(1→4)-D-GlcpNAc) ([5]; molar ratio of monoglucosylated acceptor versus sucrose consumed, sucrose and D-GlcpNAc 73 mM each, 30° C., 24 h, microtiter format): 2%
V250mM (initial rate of sucrose consumption) ([6]; 250 mM sucrose): 900 µmol/min/g
behaviour (at high concentration) ([6]; sucrose donor): saturation
V250mM (initial rate of acceptor consumption) [7]: 290 µmol/min/g
Glusosylation Yield to synthesize ED [8]: 2%

B2: F290D: single mutant F290D of N. polysaccharea amylosucrase 1G5A (protein)
chain: B1 chain with F290D
times more efficient for α-D-GlcpNAc-OAll glucosylation [9]: 10 times
times more efficient to form α-D-Glcp-(1→4)-D-GlcpNAc-OAll [9]: 20 times
increase of glucosylation rate compared to the wild type ([5]; acceptor D-GlcpNAc): 45 fold

B3: A289P-F290I: double mutant A289P, F290I of N. polysaccharea amylosucrase (protein)
chain: B1 chain with A289P, F290I
V250mM (initial rate of sucrose consumption) [10]: 946 µmol/min/g
behaviour (at high concentration) [10]: saturation
V250mM (initial rate of acceptor consumption) [7]: 51 400 μmol/min/g
Glusosylation Yield to synthesize ED [8]: 100%

B4: A289P-F290L: double mutant A289P, F290L of N. polysaccharea amylosucrase (protein)
chain: B1 chain with A289P, F290L
V250mM (initial rate of sucrose consumption) [10]: 1717 µmol/min/g
behaviour (at high concentration) [10]: saturation
V250mM (initial rate of acceptor consumption) [7]: 67 300 μmol/min/g
Glusosylation Yield to synthesize ED [8]: 100%
